Ends that are not written are not given here.
T1: human thioredoxin-like 32 kDa protein (hTXNL) (human, UniProt O43396 1-289, limits assumed)
T1 sequence: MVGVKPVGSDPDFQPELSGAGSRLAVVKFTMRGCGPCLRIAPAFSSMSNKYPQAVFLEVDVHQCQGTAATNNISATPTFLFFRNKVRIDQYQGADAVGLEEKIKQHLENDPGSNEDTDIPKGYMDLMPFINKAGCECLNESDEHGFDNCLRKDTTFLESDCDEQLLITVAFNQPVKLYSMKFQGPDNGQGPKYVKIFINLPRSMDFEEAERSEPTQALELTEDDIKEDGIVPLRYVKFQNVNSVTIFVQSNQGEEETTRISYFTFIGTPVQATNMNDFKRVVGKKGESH


What was measured:
[1] = molecular target: T1, human thioredoxin-like 32 kDa protein …; assay: cell-based or functional assay
[2] = molecular target: T1, human thioredoxin-like 32 kDa protein …; assay: cell-based or functional assay; remark: listed apart in the source

Reporter Ratio (A5T4 germline epsilon promoter GFP reporter line) [1] | endogenous epsilon inhibition ratio (TAQMAN quantitative PCR) [2] | reporter ratio (original library clone, +IL-4/+Dox to +IL-4/-Dox GFP) [2] | Binder
1.69 | 1.56 | 1.43 | PERCYMRMPPQSLADAQIYS (peptide, not shown: large carriers, also: expressed as BFP-linker-peptide fusion, construct not described) [peptide DR15wt]
1.35 |  |  | PERCYMRMPPQSLADAAAYS (peptide, not shown: large carriers) [peptide DR15QI]
2.22 |  |  | AARCYMRMPPQSLADAQIYS (peptide, not shown: large carriers) [peptide DR15PE]
1.22 |  |  | PERCAARMPPQSLADAQIYS (peptide, not shown: large carriers) [peptide DR15YM]
